Experimental data published in patent publication US20210070883A1 (AQUALUNG THERAPEUTICS, published 2021).
Residue numbers refer to the chain shown, from its start.

B1: 1076 humanized anti-hNAMPT antibody K-1076 (antibody, V domains shown)
VH: QVQLVQSGAEVKKPGASVKVSCKASGYTFTSYWMQWVRQAPGQGLEWMGEIDPSNSYTNYNQKFRGRVTMTTDTSTSTAYMELRSLRSDDTAVYYCARGGYWGQGTTVTVSS
VL: DIVMTQSPLSLPVTPGEPASISCRSSKSLLHSQGITYLYWYLQKPGQSPQLLIYQLSNRASGVPDRFSGSGSGTDFTLKISRVEAEDVGVYYCVQNLELPYTFGGGTKLEIK
notes: also called Ab-1076-HC2-LC5
B2: murine anti-hNAMPT antibody AL-303 (antibody, V domains shown)
VH: QVQLQQPGADLVKPGASVKLSCKASGYTFTSYWMQWVKQRPGQGLEWIGEIDPSNSYTNYNQKFRGKATLTVDPSSSTAYMQLSSLTSEDSAVYYCARGGYWGQGTTLTVSS
VL: DIVMTQAAFSNPVTLGTSASISCRSSKSLLHSNGITYLYWYLQKPGQSPQLLIYQMSNLASGVPDRFSSSGSGTDFTLRISRVEAEDVGVYYCVQNLELPYTFGGGTKLEIK
notes: Murine monoclonal antibody
B3: murine anti-NAMPT antibody AL-304 (antibody, V domains shown)
VH: B2 VH
VL: B2 VL
B4: murine anti-NAMPT antibody AL-310 (antibody, V domains shown)
VH: QVQLQQSGAESVMPGASVKLSCKASGYTFTSYWMHWVKQRPGQGLEWIGEIDPSDSYTNYNQKFKGKSTLTVDKSSSTAYMQLSSLTSEDSAVYYCAKSNYVVPWYFDVWGTGTTVTVSS
VL: B2 VL with V94A, Y101W
notes: Murine monoclonal antibody; also called AL-310mAb
B5: 1093 humanized anti-hNAMPT antibody NN-1093 (antibody, V domains shown)
VH: QVQLVQSGAEVTKPGASVKVSCKASGYTFTSYWMHWVRQAPGQGLEWVGEIDPSDSYTNYNQKFKGRVTLTRDTSTTTVYMELSSLRSEDTAVYYCAKSNYVVPWYFDVWGQGTTVTVSS
VL: EIVLTQSPATLSLSPGERATLSCRSSKSLLHSNGITYLYWYQQKPGQAPRLLIYQMSNLASGIPARFSGSGSGTDFTLTISSLEPEDFAVYYCAQNLELPWTFGGGTKLEIK
notes: Humanized from AL-310; it was detected with a goat anti-human antibody

Legend:
[1] = target: T1, human nicotinamide phosphoribosyltransferase (NAMPT) (human, UniProt P43490 1-491); test: told with the Pepscan epitope mapping; assay for the dimer not described
T1 construct: Recombinant hNAMPT was bought (MBL International); In the Western blots the protein was recombinant or in HPAEC lysate; also called hNAMPT; recombinant hNAMPT

[2] = target: T1, human nicotinamide …; test: Western blot on recombinant hNAMPT and HPAEC cell lysate, exposures of 30 sec and 5 min
[3] = target: T2, mouse NAMPT (mouse, UniProt Q99KQ4 1-491, limits assumed); test: Western blot on recombinant mNAMPT and mouse lung lysates (SB, LPS, VILI), exposures of 30 sec and 5 min
T2 construct: Recombinant mNAMPT; also called mNAMPT; recombinant mouse NAMPT
T2 sequence (Q99KQ4 whole entry): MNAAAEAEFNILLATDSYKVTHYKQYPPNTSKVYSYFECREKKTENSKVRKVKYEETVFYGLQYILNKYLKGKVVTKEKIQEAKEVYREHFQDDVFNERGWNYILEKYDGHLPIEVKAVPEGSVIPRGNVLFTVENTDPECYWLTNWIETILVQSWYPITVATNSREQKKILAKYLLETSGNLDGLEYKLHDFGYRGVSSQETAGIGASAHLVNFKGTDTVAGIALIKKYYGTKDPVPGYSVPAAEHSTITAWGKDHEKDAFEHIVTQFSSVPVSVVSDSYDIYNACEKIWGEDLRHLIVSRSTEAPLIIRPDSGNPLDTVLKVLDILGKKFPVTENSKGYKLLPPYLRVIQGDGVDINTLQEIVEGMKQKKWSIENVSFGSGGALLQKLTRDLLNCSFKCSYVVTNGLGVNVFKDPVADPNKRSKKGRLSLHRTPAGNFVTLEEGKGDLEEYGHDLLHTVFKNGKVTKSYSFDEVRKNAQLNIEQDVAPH

T1 sequence (P43490 whole entry): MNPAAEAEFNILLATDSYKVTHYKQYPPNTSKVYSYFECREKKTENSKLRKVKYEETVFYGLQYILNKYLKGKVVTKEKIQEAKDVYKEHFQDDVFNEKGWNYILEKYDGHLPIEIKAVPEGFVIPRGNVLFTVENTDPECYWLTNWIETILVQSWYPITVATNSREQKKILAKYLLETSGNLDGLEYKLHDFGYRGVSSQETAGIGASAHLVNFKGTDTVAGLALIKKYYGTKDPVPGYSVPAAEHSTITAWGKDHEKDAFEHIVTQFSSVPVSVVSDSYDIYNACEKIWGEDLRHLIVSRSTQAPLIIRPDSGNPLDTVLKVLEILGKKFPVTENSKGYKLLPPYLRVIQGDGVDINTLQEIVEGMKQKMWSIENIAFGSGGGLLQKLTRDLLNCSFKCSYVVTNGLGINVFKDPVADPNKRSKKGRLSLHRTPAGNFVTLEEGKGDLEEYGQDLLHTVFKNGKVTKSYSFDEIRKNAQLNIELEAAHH

| Binder | binding result [1] | binding result [2] | binding result [3] |
| --- | --- | --- | --- |
| B1 | binds |  |  |
| B2 |  | binds | binds |
| B3 |  | binds | binds |
| B4 |  | binds | no binding |
| B5 | binds |  |  |
